Test results published in patent publication US20230398232A1 (NAVROGEN, published 2023).

Key:
human serum albumin = target: T1, human serum albumin (human, UniProt P02768 25-609); experiment: ELISA, plate coated with 1 µg/mL HSA, probed with antibody
T1 construct: Negative control, coated at 1 ug/mL; also called HSA
Description: Antibodies were tested for uptake by incubating each with the human ovarian cancer cell line OVCAR3 that express mesothelin and membrane bound CA125. The parental line was used to generate an isogenic CA125 knockdown line via shRNA (referred to as OVCAR3-KO). Both Ab-3 and Ab-4 uptake were measured in replica in black 96-well microplates over the course of 24 hours measuring intracellular fluorescence on a Varioskan™ plate reader. […] Statistical analysis was done using a two-sided student's T-test.
Several studies have reported that antibodies that are bound by CA125 are negatively affected in eliciting humoral mediated immune killing as well as ADC-mediated killing of target cells (Kline J B, et. al. OncoTarget 8:52045-52060, 2017; Kline J B, et al. Eur J Immunol 48:1872-1882, 2018; Kline J B, et al. J Clin Oncol 5:15, 2018; Nicolaides N C, et al. Cancer Biol Ther 13:1-22, 2018; Nicolaides et. al. USPTO application 1698444). In an attempt to identify anti-mesothelin antibodies that naturally are not bound by CA125, we obtained a number of anti-mesothelin antibodies from academic and commercial sources (National Cancer Institute, Creative Biolabs, Novus, etc.) and tested them for CA125 binding. […] Recombinant mesothelin was used as a positive control and human serum albumin (HSA) was used as negative control. […]

[1] = target: T2, soluble human CA125 protein (human, UniProt Q8WXI7 1-14451, limits assumed); experiment: ELISA, plate coated with 15 KU/mL soluble CA125, probed with antibody, anti-Fc-HRP detection
T2 construct: Coated on the ELISA plate at 15 KU/mL; also called MUC16/CA125; soluble CA125
Description: FIG. 1A. Screening for anti-mesothelin antibodies not bound by the immunosuppressive CA125 protein; identification of MES-1 antibody (SEQ ID NO: 1 and 2). Briefly, 96-well ELISA plates were coated with 15 KU/mL of soluble CA125, 1 μg/mL of recombinant human mesothelin protein as a positive control and 1 μg/mL of human serum albumin (HSA) as a negative control and probed with 2.5 μg/mL of different anti-mesothelin antibodies to determine if they are bound by CA125. Wells were washed and detected for binding via a secondary anti-human or anti-rodent Fc-horseradish peroxidase (HRP) conjugated antibody and 3,3′,5,5′-Tetramethylbenzidine (TMB) substrate. Reactions were stopped with 0.1N H₂SO₄ and wells quantified using a multi-well plate reader (Varioskan™, ThermoFisher) at 450 nm. As shown, the antibody MES-1 consisting of SEQ ID NOs: 1 and 2 [Ab-3 (lane 3)] was not bound by CA125 while the other four anti-mesothelin antibodies tested were all bound by CA125. Values were determined from the average of triplicate wells. Statistical analysis was done using student's T-test. FIG. 1B. […] Both Ab-3 and Ab-4 uptake were measured in replica in black 96-well microplates over the course of 24 hours measuring intracellular fluorescence on a Varioskan™ plate reader. […]

B1: MES-1 antibody (antibody, human IgG1, kappa, V domains shown)
VH: EVQLVESGGGLVQPGGSLRLSCAASGFDLGFYFYACWVRQAPGKGLEWVSCIYTAGSGSTYYASWAKGRFTISRDNSKNTLYLQMNSLRAEDTAVYYCARSTANTRSTYYLNLWGQGTLVTVSS
VL: DIQMTQSPSSLSASVGDRVTITCQASQRISSYLSWYQQKPGKVPKLLIYGASTLASGVPSRFSGSGSGTDFTLTISSLQPEDVATYYCQSYAYFDSNNWHAFGGGTKVEIKR
notes: For the uptake assay the antibody carried the pHrodo dye; also called meso-Ab3; Ab-3
- binding result (human serum albumin): no binding (tested: 2.5 µg/mL)
- binding result [1]: no binding (tested: 2.5 µg/mL)
